Patent publication US20190033318A1 (UNIVERSITY OF SOUTHAMPTON, published 2019)

B1: CAVIIF (peptide)
peptide: CAVIIF
notes: also called alanine scan peptide of CRVIIF, position 2 (R to A)
B2: CRVIIA (peptide)
peptide: CRVIIA
notes: also called alanine scan peptide of CRVIIF, position 6 (F to A)

Key:
[1] = target: T1, 2α PASB (HIF-2α PASB domain, 240-350) (UniProt Q99814 240-350, labelled with NT-647-NHS dye in MST; 15N (and 13C 15N) labelled in NMR); assay: ELISA, 2α PASB on Ni plate, inhibition of GST-1β binding
T1 construct: range 240-350; also called PAS B domain of HIF-2α; not shown: His6 tag of vector pET28, then Met
T1 sequence (Q99814 240-350): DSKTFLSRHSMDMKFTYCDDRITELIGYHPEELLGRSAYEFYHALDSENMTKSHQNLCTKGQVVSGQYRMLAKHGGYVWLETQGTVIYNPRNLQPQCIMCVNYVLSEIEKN
Protocol: (§1) ELISA assays were conducted using 1α/2α PASB domains.
(§2) 25 μL of His-tagged HIF-α protein (either Trx-1α, Trx-2α, 1α PASB, or 2α PASB) at 0.1 μM in HIF assay buffer were added to individual wells of a Pierce Ni²⁺-coated 96-well plate (Thermo) in triplicate. The plate was rocked gently at room temperature for 1 hr, before washing with 3×200 μL assay buffer (5 min incubation per wash). 25 μL of compounds and/or DMSO at the stated concentrations were added to the plate and allowed to equilibrate for 30 min prior to the addition of 25 μL of GST-1β at 0.2 μM in assay buffer for 1 hr. For conditions in which no compound or DMSO were used, GST-1β was added as a 0.1 μM solution. After incubation with GST-1β, the wells were washed with 3×200 μL assay buffer then 1×200 μL PBS. The wells were then incubated with 100 μL mouse α-GST antibody (Thermo, MS-707-P) at a 1/1000 dilution in PBS supplemented with 0.1% Tween-20 (PBST) and 2% non-fat powdered milk (Marvel) for 1 hr, followed by 3×200 μL washed with PBS. 100 μL of secondary HRP-conjugated α-mouse antibody (GE Healthcare) was added at a 1/6000 dilution in 2% milk/PBST for 1 hr, then washed with 3×200 μL PBS. […] Absorbance was read at 450 nm using a Tecan Infinite M200 Pro plate reader. Data were fitted and IC₅₀ values determined by non-linear regression using GraphPad Prism 6.

[2] = target: T2, 1α PASB (HIF-1α PASB domain, 238-349) (UniProt Q16665 238-349, labelled with NT-647-NHS dye in MST); assay: MST, peptide titrated into fluorescently labelled 1α PASB
T2 construct: range 238-349; not shown: His6 tag of vector pET28, then Met
Protocol: (§3) Microscale thermophoresis (MST) was performed to determine Kd of peptide binding to fluorescently labelled HIF-1α/2α PASB domains.
(§4) 0.5 mL of 1α or 2α PASB protein stocks in HIF storage/assay buffer were dialysed against 1 L of MST labelling buffer (100 mM NaHCO₃ pH 8, 150 mM NaCl and 5% glycerol) for 1.5 hr at 4° C., then against 1 L of fresh labelling buffer at 4° C. overnight. 100 μL of each dialysed protein diluted to 10 μM were incubated with 100 μL of 30 μM NT-647-NHS dye (NanoTemper protein labelling kit) for 20 min in the dark, then exchanged into 650 μL HIF assay buffer supplemented with 0.05% Tween-20 using the supplied gravity flow purification columns. A dilution series of cyclo-CRVIIF (SEQ ID NO 4) or alanine scan analogues (in HIF assay buffer, 10% DMSO) was mixed with equal volumes of labelled 1α PASB or 2α PASB at 100 nM and allowed to equilibrate for 10 min. Samples were loaded into hydrophilic capillaries and, after optimising the power, MST was performed using a Monolith […] instrument (NanoTemper). Data were analysed using NT Analysis Software using the Temperature Jump analysis mode.

[3] = target: T2, 1α PASB (HIF-1α PASB domain, 238-349); assay: ELISA, 1α PASB on Ni plate, inhibition of GST-1β binding
Protocol: as §1, §2

[4] = target: T1, 2α PASB (HIF-2α PASB domain, 240-350); assay: MST, peptide titrated into fluorescently labelled 2α PASB
Protocol: as §3, §4

[5] = target: T3, Trx-1α (thioredoxin-tagged HIF-1α 1-350, bHLH-PASA-PASB) (UniProt Q16665 1-350); assay: competition ELISA: His-tagged Trx-1α on Ni plate, peptide titrated, binding of GST-1β (blocked partner) detected with anti-GST, A450
T3 construct: range 1-350; not shown: Thioredoxin-His6 tag of vector pET32
Protocol: (§5) IC₅₀ values for the compound=3.7 μM/8.8 μM for 1α/2α.
as §2

[6] = target: T2, 1α PASB (HIF-1α PASB domain, 238-349); assay: thermal shift assay, 1 mM peptide
Protocol: (§6) Thermal denaturation of HIF proteins was performed in 20 μL reactions in triplicate using a Bio-Rad CFX Connect Real-Time System. Proteins were used at either 5 μM (Trx-1α, Trx-2α and GST-1β) or 15 μM (His-tagged PASB domains) in HIF assay buffer, with 10 mM DTT and SYPRO orange dye (Life Technologies) at a final concentration of 8×(relative to 5000×stock), and supplemented with either DMSO or compound dissolved in DMSO at the stated concentrations. The reaction plate was assembled on ice, then transferred to the pre-chilled thermal cycler, held at 10° C. for 5 min (heated lid, 105° C.), then the temperature ramped to 95° C. Fluorescence was recorded at 0.5° C. increments, holding for 5 sec at each temperature. Data were plotted using GraphPad Prism 6, and melting temperatures calculated using the first derivative method in which the peak (i.e. the steepest transition between data points) represents the point at which 50% of the protein sample is denatured. Errors are quoted as the inherent error associated with the first derivative of the data, i.e. ±0.25° C. for Tₘ values and ±0.5° C. for ΔTₘ values.

[7] = target: T4, 1β PASB (HIF-1β PASB domain, 356-474) (UniProt P27540 356-474); assay: thermal shift assay, 1 mM peptide
T4 construct: range 356-474; not shown: His6 tag of vector pET28
T4 sequence (P27540 356-474): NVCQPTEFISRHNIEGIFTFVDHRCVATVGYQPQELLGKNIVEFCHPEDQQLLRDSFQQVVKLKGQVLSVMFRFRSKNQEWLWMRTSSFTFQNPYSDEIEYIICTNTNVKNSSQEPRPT
Protocol: as §6

[8] = target: T1, 2α PASB (HIF-2α PASB domain, 240-350); assay: thermal shift assay, 1 mM peptide
Protocol: as §6

[9] = target: T5, Trx-2α (thioredoxin-tagged HIF-2α 1-360, bHLH-PASA-PASB) (UniProt Q99814 1-360); assay: thermal shift assay, 1 mM peptide
T5 construct: range 1-360; not shown: Thioredoxin-His6 tag of vector pET32
T5 sequence (Q99814 1-360): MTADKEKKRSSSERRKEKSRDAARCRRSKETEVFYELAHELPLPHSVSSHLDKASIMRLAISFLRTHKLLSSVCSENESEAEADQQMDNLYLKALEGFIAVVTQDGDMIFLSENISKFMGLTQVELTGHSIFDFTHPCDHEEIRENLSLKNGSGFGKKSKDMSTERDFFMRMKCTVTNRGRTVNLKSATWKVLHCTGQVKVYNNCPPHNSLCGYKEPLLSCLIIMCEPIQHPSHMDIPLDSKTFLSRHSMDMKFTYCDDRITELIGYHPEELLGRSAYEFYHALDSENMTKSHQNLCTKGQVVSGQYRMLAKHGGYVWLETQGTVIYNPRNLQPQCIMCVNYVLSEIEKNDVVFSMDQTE
Protocol: as §6

[10] = target: T3, Trx-1α (thioredoxin-tagged HIF-1α …); assay: thermal shift assay, 1 mM peptide
Protocol: as §6

[11] = target: T5, Trx-2α (thioredoxin-tagged HIF-2α …); assay: competition ELISA: His-tagged Trx-2α on Ni plate, peptide titrated, binding of GST-1β (blocked partner) detected with anti-GST, A450
Protocol: as §5, §2

[12] = target: T1, 2α PASB (HIF-2α PASB domain, 240-350); assay: competition ELISA: 2α PASB on Ni plate, peptide titrated, blocked partner GST-1β; the value stands in the panel without a name, the ELISA fits give IC50
Protocol: as §2

[13] = target: T2, 1α PASB (HIF-1α PASB domain, 238-349); assay: competition ELISA: 1α PASB on Ni plate, peptide titrated, blocked partner GST-1β; the value stands in the panel without a name, the ELISA fits give IC50
Protocol: as §2

[14] = target: T1, 2α PASB (HIF-2α PASB domain, 240-350); assay: competition ELISA: 2α PASB on Ni plate, peptide titrated, blocked partner GST-1β; the value stands in the panel without a name, the ELISA fits give IC50; the fall is only partial
Protocol: as §2

[15] = target: T2, 1α PASB (HIF-1α PASB domain, 238-349); assay: competition ELISA: 1α PASB on Ni plate, peptide titrated, blocked partner GST-1β; the value stands in the panel without a name, the ELISA fits give IC50; the fall is only partial
Protocol: as §2

[16] = target: T3, Trx-1α (thioredoxin-tagged HIF-1α …); assay: ELISA, Trx-1α on Ni plate, inhibition of GST-1β binding
Protocol: as §5, §2

[17] = target: T5, Trx-2α (thioredoxin-tagged HIF-2α …); assay: ELISA, Trx-2α on Ni plate, inhibition of GST-1β binding
Protocol: as §5, §2

[18] = target: T1, 2α PASB (HIF-2α PASB domain, 240-350); assay: fluorescence polarisation, 2α PASB titrated into 2 µM fluor-CRVIIF
Protocol: Kd values were determined by fluorescence polarisation (FP) using fluorescently labelled cyclo-CRVIIF (fluor-CRVIIF) (SEQ ID NO 4) dissolved in DMSO as the probe. In each condition, the concentration of the probe was kept constant (2 μM, 1% DMSO) whilst proteins were titrated. Reactions were performed in HIF assay buffer with the addition of 0.1% Triton X-100. Samples were assembled in black 96-well plates (40 μL/well, in triplicate) and allowed to equilibrate for 2 hr in the dark. Plates were read using a POLARstar Omega plate reader (BMG Labtech) at Ex: 490 nm, Em: 520 nm, with target gain set to 300 mP. Polarisation data were plotted and Kd values calculated by non-linear regression using GraphPad Prism 6.

[19] = target: T6, HIF-2α (construct not given) (UniProt Q99814 1-360, limits assumed); assay: HIF-2 ELISA, inhibition of HIF-2α/HIF-1β dimerisation
T6 construct: also called HIF-2 ELISA
T6 sequence (Q99814 1-360 limits assumed): as the sequence (Q99814 1-360) above

| Binder | Kd [2] [µM] | Kd [4] [µM] | ΔTm [6] [° C.] | ΔTm [7] [° C.] | ΔTm [8] [° C.] | ΔTm [9] [° C.] | ΔTm [10] [° C.] | further results |
| --- | --- | --- | --- | --- | --- | --- | --- | --- |
| CRVIIF (cyclic peptide (cyclo-, first amino acid joined to the last), also called Compound C) [cyclo-CRVIIF (SEQ ID NO 4)] | 158 | 133 | -1.5 | -0.5 | -2.5 | -2 | -1 | IC50 [1]: 15.2 µM; IC50 [3]: 5.4 µM; IC50 [5]: 115 µM; IC50 [11]: 244 µM |
| B1 | – | – | – | – | – | – | – | IC50 [12]: 22.3 µM; IC50 [13]: 112 µM |
| B2 | – | – | – | – | – | – | – | IC50 [14]: 37.1 µM; IC50 [15]: 110 µM |
| CKLIIF (cyclic peptide (first amino acid joined to the last)) [cyclo-CKLIIF (SEQ ID NO 2)] | 2.5 | 4.6 | -1 | -0.5 | -2.5 | -2.5 | -1.5 | IC50 [16]: 3.7 µM; IC50 [17]: 8.8 µM |
| cyclo(C(FITC‑maleimide)RVIIF) (not fully specified; printed as fluor-CRVIIF, also called FITC-CRVIIF) [fluorescently labelled cyclo-CRVIIF (fluor-CRVIIF) (SEQ ID NO 4)] | – | – | – | – | – | – | – | Kd [18]: 18.5 µM; Activity as measured by a HIF-2 ELISA [19]: 1.46 µM |
